# According to patent publication US20110212106A1 (INSTITUTE FOR RESEARCH IN BIOSCIENCE, published 2011):
# Molecular target: T1, peptide … (HIV-1)
# T1 construct: also called wt peptide
# Test: Pepscan ELISA
binder,measurement,value
"HGN194 (antibody, V domains shown, also called HGN194.12) VH: EVQLVQSGAEVKKPGESLKISCYGSGYNFNDYWIGWVRQMPGKGLEWMGMIYPDDSDTKYSAAFEGQVTLSADKSISTAYLQWTSLRASDTATYYCARLDGDYADFDSWGQGTLVTVSS VL: QSVLTQPPSVSAAPGQKVTISCSGTNSNLGDKFVSWYQQLPGTAPRLLIYDNDKRPSGIPDRFSGSKSGASATLAITGLQTGDEADYYCGTWDNSLSALFGGGTKLTVL",binding result,binds
